PMC3548793

Experiments:
GFP-tagged Sec23 [1] = biological target: GFP-tagged Sec23 (UniProt Q15436); assay: co-immunoprecipitation (anti-GFP beads) and western blotting, single blot quantified; conditions: HEK293 cells co-transfected; parent: 1
GFP-Sec13 = GFP-Sec13 (UniProt P55735); assay: co-immunoprecipitation and western blotting; conditions: parent: 0.8
GFP-tagged Sec23 [2] = biological target: GFP-tagged Sec23 (UniProt Q15436); assay: co-immunoprecipitation (anti-GFP beads) and western blotting, mean of three experiments; conditions: HEK293 cells co-transfected; parent: est. 1.0; read off a plot
Sec23 = Sec23 (UniProt Q15436); assay: anti-GFP co-IP, anti-FLAG blot; conditions: reference: wild type; sites S527,S799

Chain of FLAG-tagged wild type (WT) Sec31 (from UniProt O94979) S527A; S799A; T1163A; T1165A (O94979 whole entry, stated change not applied): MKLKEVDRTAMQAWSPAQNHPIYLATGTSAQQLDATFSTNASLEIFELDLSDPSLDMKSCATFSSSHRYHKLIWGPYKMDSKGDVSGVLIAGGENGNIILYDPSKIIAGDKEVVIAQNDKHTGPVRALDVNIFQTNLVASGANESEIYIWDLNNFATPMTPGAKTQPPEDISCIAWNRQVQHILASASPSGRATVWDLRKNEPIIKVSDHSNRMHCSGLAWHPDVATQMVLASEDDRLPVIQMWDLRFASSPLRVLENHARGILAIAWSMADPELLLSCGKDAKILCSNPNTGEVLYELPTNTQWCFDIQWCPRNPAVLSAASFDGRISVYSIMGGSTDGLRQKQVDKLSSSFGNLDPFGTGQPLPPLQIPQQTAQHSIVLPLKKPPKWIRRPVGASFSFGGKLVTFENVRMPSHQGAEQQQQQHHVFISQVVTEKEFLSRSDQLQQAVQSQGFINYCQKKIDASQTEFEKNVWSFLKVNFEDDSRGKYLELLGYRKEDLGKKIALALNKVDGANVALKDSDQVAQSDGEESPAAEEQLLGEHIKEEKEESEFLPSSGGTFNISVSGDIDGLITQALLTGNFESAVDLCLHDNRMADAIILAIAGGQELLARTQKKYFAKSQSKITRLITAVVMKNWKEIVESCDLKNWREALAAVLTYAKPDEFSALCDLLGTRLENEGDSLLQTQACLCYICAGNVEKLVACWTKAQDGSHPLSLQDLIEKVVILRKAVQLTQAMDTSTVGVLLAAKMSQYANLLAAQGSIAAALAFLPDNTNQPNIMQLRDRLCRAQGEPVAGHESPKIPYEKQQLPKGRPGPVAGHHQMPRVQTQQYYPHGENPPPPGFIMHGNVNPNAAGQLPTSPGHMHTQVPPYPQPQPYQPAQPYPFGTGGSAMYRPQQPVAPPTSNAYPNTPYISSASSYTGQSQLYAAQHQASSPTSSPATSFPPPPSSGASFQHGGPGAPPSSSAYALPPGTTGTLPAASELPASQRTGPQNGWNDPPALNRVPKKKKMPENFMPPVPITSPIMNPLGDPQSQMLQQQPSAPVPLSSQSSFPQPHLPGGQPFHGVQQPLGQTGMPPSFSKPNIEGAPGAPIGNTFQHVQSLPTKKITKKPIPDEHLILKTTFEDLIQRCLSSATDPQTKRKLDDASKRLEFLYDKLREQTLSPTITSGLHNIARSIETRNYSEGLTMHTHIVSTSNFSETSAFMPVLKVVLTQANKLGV
Chain of GFP-tagged Sec23 (Q15436 whole entry): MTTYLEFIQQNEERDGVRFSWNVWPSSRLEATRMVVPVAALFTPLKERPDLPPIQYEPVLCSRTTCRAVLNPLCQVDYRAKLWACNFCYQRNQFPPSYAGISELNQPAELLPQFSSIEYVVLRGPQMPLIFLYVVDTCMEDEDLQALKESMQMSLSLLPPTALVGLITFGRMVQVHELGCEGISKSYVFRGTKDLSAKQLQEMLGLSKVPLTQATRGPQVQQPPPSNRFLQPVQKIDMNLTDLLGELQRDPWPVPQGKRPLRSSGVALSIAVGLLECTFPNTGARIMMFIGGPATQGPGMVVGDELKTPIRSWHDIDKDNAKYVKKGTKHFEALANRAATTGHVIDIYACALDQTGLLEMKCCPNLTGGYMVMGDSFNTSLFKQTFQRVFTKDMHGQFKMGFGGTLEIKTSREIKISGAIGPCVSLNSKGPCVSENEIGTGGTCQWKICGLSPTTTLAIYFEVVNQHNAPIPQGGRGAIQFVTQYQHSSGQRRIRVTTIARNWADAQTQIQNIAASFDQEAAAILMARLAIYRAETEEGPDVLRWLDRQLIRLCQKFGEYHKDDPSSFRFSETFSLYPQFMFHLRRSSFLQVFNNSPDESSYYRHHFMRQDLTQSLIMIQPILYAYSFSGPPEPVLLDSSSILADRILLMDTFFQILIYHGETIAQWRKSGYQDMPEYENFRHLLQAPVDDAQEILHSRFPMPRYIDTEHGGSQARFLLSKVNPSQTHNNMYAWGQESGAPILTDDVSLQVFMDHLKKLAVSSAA
Chain of FLAG-tagged wild type (WT) Sec31 (from UniProt O94979) W985A (O94979 whole entry, stated change not applied): as the sequence (O94979 whole entry, stated change not applied) above
Chain of GFP-Sec13 (P55735 whole entry): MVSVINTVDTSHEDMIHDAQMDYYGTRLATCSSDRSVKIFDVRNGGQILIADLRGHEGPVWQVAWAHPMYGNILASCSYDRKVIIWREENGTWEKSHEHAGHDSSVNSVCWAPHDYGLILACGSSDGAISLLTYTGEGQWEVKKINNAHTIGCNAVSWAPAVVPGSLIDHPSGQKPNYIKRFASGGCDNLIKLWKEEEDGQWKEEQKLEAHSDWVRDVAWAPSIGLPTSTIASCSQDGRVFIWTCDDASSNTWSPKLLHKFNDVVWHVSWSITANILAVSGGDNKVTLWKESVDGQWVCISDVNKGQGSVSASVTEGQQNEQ
Chain of FLAG-tagged wild type (WT) Sec31 (from UniProt O94979) T1163A (O94979 whole entry, stated change not applied): as the sequence (O94979 whole entry, stated change not applied) above

| ratio to parent (GFP-tagged Sec23 [1]) | other: normalized ratio of co-IP'ed Sec31 (GFP-Sec13) | ratio to parent (GFP-tagged Sec23 [2]) | fold change (Sec23) | Substance |
| --- | --- | --- | --- | --- |
| 3.2 | 1.4 | 3.1 |  | FLAG-tagged wild type (WT) Sec31 (from UniProt O94979) S527A; S799A; T1163A; T1165A |
|  | 1.1 |  |  | FLAG-tagged wild type (WT) Sec31 (from UniProt O94979) T1163A |
| 0.3 |  | 0.33 |  | FLAG-tagged wild type (WT) Sec31 (from UniProt O94979) W985A |
|  |  |  | stronger | Sec31 (from UniProt O94979) S527A/S799A |
